Target: Patched (Ptc) receptor on C3H10T1/2 cells (mouse (endogenous in C3H10T1/2)) (UniProt Q61115)
Chain of UniProt Q61115 (Q61115 whole entry): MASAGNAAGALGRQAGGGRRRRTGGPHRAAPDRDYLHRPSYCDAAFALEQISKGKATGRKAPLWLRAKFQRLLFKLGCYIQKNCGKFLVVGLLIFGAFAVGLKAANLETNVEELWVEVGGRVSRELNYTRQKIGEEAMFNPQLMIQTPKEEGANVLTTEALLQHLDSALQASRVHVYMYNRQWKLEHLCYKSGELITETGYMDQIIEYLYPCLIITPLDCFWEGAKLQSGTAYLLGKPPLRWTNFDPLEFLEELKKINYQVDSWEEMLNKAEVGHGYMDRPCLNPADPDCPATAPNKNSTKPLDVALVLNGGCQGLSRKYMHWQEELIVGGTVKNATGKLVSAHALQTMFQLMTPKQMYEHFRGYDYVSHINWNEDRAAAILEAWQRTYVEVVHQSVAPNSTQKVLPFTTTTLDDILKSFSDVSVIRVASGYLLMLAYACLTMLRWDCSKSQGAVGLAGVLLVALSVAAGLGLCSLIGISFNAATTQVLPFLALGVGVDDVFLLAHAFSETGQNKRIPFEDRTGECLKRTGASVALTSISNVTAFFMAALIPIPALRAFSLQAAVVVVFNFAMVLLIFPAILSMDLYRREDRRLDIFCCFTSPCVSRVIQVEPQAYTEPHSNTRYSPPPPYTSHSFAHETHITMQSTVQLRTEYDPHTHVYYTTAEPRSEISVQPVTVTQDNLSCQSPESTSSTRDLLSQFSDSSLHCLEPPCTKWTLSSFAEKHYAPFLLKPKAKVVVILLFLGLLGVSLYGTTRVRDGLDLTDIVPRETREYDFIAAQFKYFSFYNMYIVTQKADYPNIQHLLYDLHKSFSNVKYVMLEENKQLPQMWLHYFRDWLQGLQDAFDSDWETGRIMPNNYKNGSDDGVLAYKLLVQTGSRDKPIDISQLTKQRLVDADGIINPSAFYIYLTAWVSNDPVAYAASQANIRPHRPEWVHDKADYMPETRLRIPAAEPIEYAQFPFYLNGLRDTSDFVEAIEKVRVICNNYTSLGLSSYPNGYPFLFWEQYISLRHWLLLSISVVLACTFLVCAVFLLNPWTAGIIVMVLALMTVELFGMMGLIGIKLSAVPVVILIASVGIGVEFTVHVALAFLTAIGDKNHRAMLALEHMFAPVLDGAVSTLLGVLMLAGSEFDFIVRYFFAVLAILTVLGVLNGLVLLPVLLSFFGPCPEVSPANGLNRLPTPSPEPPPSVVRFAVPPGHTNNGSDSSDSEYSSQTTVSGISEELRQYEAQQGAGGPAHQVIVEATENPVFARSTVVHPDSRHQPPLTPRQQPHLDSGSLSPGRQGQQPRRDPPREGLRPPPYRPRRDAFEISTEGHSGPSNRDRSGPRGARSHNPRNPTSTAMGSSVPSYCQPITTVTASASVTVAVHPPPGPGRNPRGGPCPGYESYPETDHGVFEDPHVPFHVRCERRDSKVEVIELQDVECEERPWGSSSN

Shh-induced C3H10T1/2 differentiation with 5 ug/mL HSI (0.7 sulfates/disaccharide), relative to no HS/heparin (100%): 70%
Shh-induced C3H10T1/2 differentiation with 5 ug/mL HSII (1.2 sulfates/disaccharide), relative to no HS/heparin (100%): 58%
Shh-induced C3H10T1/2 differentiation with 5 ug/mL HSIII (1.4 sulfates/disaccharide), relative to no HS/heparin (100%): 38%
Shh-induced C3H10T1/2 differentiation with 5 ug/mL dp30 heparin, relative to no HS/heparin (100%): 26%
Shh-induced C3H10T1/2 differentiation with 5 ug/mL heparin, relative to no HS/heparin (100%): 27%
Substance: Sonic hedgehog (Shh), soluble form released from Shh-expressing Panc1 cells (ligand)

— paper PMC6526471
